Experimental data: patent publication US20250011379A1

B1: Const. No. 94: hCFI-PD (wild type plasma-derived human CFI), P05156 19-583 (enzyme)
chain: KVTYTSQEDLVEKKCLAKKYTHLSCDKVFCQPWQRCIEGTCVCKLPYQCPKNGTAVCATNRRSFPTYCQQKSLECLHPGTKFLNNGTCTAEGKFSVSLKHGNTDSEGIVEVKLVDQDKTMFICKSSWSMREANVACLDLGFQQGADTQRRFKLSDLSINSTECLHVHCRGLETSLAECTFTKRRTMGYQDFADVVCYTQKADSPMDDFFQCVNGKYISQMKACDGINDCGDQSDELCCKACQGKGFHCKSGVCIPSQYQCNGEVDCITGEDEVGCAGFASVTQEETEILTADMDAERRRIKSLLPKLSCGVKNRMHIRRKRIVGGKRAQLGDLPWQVAIKDASGITCGGIYIGGCWILTAAHCLRASKTHRYQIWTTVVDWIHPDLKRIVIEYVDRIIFHENYNAGTYQNDIALIEMKKDGNKKDCELPRSIPACVPWSPYLFQPNDTCIVSGWGREKDNERVFSLQWGEVKLISNCSKFYGNRFYEKEMECAGTYDGSIDACKGDSGGPLVCMDANNVTYVWGVVSWGENCGKPEFPGVYTKVANYFDWISYHVGRPFISQYNV
B2: Const. No. 96: hCFI (wt hCFI, no signal sequence, no HSA), P05156 19-583 (enzyme)
chain: B1 chain

Target: human C4b (human), P0C0L5
Test: cell-based or functional assay

human C4b (human), P0C0L5, sequence (P0C0L5 20-1744): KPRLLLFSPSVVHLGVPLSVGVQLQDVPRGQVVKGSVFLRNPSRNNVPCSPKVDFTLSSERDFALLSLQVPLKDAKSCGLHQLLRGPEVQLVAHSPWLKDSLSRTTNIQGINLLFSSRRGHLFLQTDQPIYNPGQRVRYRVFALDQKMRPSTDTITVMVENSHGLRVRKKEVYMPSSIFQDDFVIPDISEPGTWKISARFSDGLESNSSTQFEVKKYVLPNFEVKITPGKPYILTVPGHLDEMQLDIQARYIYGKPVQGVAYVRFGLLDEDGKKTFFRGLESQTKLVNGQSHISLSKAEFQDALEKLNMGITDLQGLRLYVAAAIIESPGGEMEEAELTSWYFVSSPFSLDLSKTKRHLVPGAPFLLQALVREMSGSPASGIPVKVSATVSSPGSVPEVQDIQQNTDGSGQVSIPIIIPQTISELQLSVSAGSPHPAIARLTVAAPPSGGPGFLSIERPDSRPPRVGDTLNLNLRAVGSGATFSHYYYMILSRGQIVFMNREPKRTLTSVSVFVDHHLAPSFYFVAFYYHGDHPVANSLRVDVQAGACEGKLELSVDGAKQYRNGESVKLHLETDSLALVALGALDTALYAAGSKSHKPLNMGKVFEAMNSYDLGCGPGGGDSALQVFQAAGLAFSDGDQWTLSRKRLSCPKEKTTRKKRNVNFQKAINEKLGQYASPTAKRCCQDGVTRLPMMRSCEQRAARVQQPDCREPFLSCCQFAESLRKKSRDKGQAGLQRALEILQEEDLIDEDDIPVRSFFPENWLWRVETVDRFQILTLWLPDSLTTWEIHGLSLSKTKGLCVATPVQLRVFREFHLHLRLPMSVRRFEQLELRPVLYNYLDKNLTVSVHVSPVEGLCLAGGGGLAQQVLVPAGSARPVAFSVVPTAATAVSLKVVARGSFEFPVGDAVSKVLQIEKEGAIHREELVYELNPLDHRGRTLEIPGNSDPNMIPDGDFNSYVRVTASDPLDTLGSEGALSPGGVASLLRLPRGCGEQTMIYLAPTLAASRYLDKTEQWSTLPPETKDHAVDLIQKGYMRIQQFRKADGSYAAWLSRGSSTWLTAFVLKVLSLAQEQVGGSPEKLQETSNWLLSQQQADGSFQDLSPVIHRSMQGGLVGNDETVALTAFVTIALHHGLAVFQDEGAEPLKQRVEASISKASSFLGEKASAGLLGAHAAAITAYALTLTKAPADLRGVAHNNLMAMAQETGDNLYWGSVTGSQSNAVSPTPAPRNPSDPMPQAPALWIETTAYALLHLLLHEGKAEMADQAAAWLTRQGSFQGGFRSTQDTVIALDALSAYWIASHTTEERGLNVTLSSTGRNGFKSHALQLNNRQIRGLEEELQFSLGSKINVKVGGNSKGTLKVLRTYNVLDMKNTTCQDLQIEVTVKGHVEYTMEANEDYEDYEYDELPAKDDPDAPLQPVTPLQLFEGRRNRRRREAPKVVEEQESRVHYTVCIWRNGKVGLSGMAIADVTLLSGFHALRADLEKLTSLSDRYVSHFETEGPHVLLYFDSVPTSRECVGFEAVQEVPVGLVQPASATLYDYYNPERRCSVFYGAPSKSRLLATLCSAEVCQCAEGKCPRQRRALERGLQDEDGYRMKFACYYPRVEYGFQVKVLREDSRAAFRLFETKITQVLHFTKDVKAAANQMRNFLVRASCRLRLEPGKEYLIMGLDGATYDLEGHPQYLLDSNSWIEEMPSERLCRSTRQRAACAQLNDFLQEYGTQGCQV

| C4c EC50 | Binder |
| --- | --- |
| 412 nM | B1 |
| 340 nM | B2 |
